Legend:
[1] = target: T1, human α-CGRP fragments and variants (Homo sapiens, UniProt P06881); experiment: Biacore affinity of G1 Fab to human α-CGRP fragments and variants on chip; type: binding; details: CGRP on chip: 38A (25-38A), 37° C.
T1 construct: host or cells: synthetic peptides
Method: Biacore assay for affinity determination. […] All Biacore assays were conducted in HBS-EP running buffer (10 mM HEPES pH 7.4, 150 mM NaCl, 3 mM EDTA, 0.005% v/v polysorbate P20). CGRP surfaces were prepared by diluting the N-biotinylated CGRP to a concentration of less than 0.001 mg/mL into HBS-EP buffer and injecting it across the SA sensor chip using variable contact times. Low capacity surfaces, corresponding to capture levels <50 response units (RU) were used for high-resolution kinetic studies, whereas high capacity surfaces (about 800 RU of captured CGRP) were used for concentration studies, screening, and solution affinity determinations. […] Samples were typically injected for lminute at 100 μL/min and dissociation times of at least 10 minutes were allowed. After each binding cycle, surfaces were regenerated with 25 mM NaOH in 25% v/v ethanol, which was tolerated over hundreds of cycles. An entire titration series (typically generated in duplicate) was fit globally to a 1:1 Langmuir binding model using the BlAevaluation program. This returned a unique pair of association and dissociation kinetic rate constants (respectively, kon and koff) for each binding interaction, whose ratio gave the equilibrium dissociation constant (KD=koff/[…]).

[2] = tested on: naïve high-threshold (HT) trigeminovascular neurons; experiment: Single-unit recording of naïve central trigeminovascular neurons, HT neurons; type: in vivo, rat; details: 30 mg/kg IV
Source text: Experiments were approved by the Beth Israel Deaconess Medical Center and Harvard Medical School standing committees on animal care, and in accordance with the U.S. National Institutes of Health Guide for the Care and Use of Laboratory Animals. Male and female Sprague-Dawley rats (250-350 g) were anesthetized with urethane (0.9-1.2 g/kg i.p.). They were fitted with an intra-tracheal tube to allow artificial ventilation (0.1 L/min of (O2), and an intra-femoral-vein cannula for later infusion of drugs. Rats were placed in a stereotaxic apparatus, and core temperature was kept at 37° C. using a heating blanket. End-tidal […] was continuously monitored and kept within physiological range (3.5-4.5 pCO2). Once stabilized, rats were paralyzed with rocuronium bromide (10 mg/ml, 1 ml/hr continuous intravenous infusion) and ventilated. For stimulation of the cranial dura later in the experiment, a 5×5-mm opening was carefully carved in the parietal and occipital bones in front and behind the lambda suture, directly above the left transverse sinus. The exposed dura was kept moist using a modified synthetic interstitial fluid (135 mM NaCl, 5 mM KCl, 1 mM MgCl2, 5 mM CaCl2, 10 mM glucose and 10 mM Hepes, pH 7.2). For single-unit recording in the spinal trigeminal nucleus, a segment of the spinal cord between the obex and C2 was uncovered from overlying tissues, stripped of the dura mater, and kept moist with mineral oil.
To record neuronal activity, a tungsten microelectrode (impedance 3-4 MΩ) was lowered repeatedly into the spinal trigeminal nucleus (STN) in search of central trigeminovascular neurons receiving convergent input from the dura and facial skin. Trigeminovascular neurons were first identified based on their responses to electrical stimulation of the dura. […] Dural receptive fields were mapped by indenting the dura (with the 4.19 g VFH monofilament) at points separated by 1 mm mediolaterally and rostrocaudally. Points at which dural indentation produced a response in ≥50% of the trials were considered inside the neurons receptive field. Cutaneous receptive fields were mapped by applying innocuous and noxious mechanical stimulation to all facial skin areas and the cornea. An area was considered outside the receptive field if no stimulus produced a response in ≥50% of the trials. Responses to mechanical stimulation of the skin were determined by applying brief (10 s) innocuous and noxious stimuli to the most sensitive portion of the cutaneous receptive field. Innocuous stimuli consisted of slowly passing a soft bristled brush across the cutaneous receptive field (one 5-s brush stroke from caudal to rostral and one 5-s brush stroke from rostral to caudal) and pressure applied with a loose arterial clip. Noxious stimuli consisted of pinch with a strong arterial clip (Palecek et al., 1992, J. Neurophysiol. 67:1562-1573; Dado et al., 1994, J. Neurophysiol. 71:981-1002; Burstein et al., 1998, J. Neurophysiol. 79:964-982). More intense or prolonged stimuli were not used to avoid inducing prolonged changes in spontaneous neuronal discharge or response properties. […] Real-time waveform discriminator was used to create and store a template for the action potential evoked in the neuron under study by electrical pulses on the dura; spikes of activity matching the template waveform were acquired and analyzed online and offline using Spike 2 software (CED, Cambridge, UK). […]

KD [1]: No binding
B1: fremanezumab (antibody)
heavy: EVQLVESGGGLVQPGGSLRLSCAASGFTFSNYWISWVRQAPGKGLEWVAEIRSESDASATHYAEAVKGRFTISRDNAKNSLYLQMNSLRAEDTAVYYCLAYFDYGLAIQNYWGQGTLVTVSSASTKGPSVFPLAPCSRSTSESTAALGCLVKDYFPEPVTVSWNSGALTSGVHTFPAVLQSSGLYSLSSVVTVPSSNFGTQTYTCNVDHKPSNTKVDKTVERKCCVECPPCPAPPVAGPSVFLFPPKPKDTLMISRTPEVTCVVVDVSHEDPEVQFNWYVDGVEVHNAKTKPREEQFNSTFRVVSVLTVVHQDWLNGKEYKCKVSNKGLPSSIEKTISKTKGQPREPQVYTLPPSREEMTKNQVSLTCLVKGFYPSDIAVEWESNGQPENNYKTTPPMLDSDGSFFLYSKLTVDKSRWQQGNVFSCSVMHEALHNHYTQKSLSLSPGK
light: EIVLTQSPATLSLSPGERATLSCKASKRVTTYVSWYQQKPGQAPRLLIYGASNRYLGIPARFSGSGSGTDFTLTISSLEPEDFAVYYCSQSYNYPYTFGQGTKLEIKRTVAAPSVFIFPPSDEQLKSGTASVVCLLNNFYPREAKVQWKVDNALQSGNSQESVTEQDSKDSTYSLSSTLTLSKADYEKHKVYACEVTHQGLSSPVTKSFNRGEC
notes: humanized anti-CGRP antagonist antibody, vectors ATCC PTA-6867 and PTA-6866
spontaneous activity of HT neurons ([2]; female rats): did not reduce the spontaneous activity | decrease of firing of HT neurons in response to mechanical stimulation of the dura ([2]; female rats, p=0.017): 61% | responses of HT neurons to innocuous (brush, pressure) or noxious (pinch) mechanical stimulation of the skin or the cornea ([2]; male or female rats): did not alter the responses | decrease of firing of HT neurons in response to mechanical stimulation of the dura ([2]; male rats, p=0.047): 75% | decrease of spontaneous neuronal firing of HT neurons ([2]; male rats, within 3-4 hrs, p=0.040): 90%

Source: patent publication US10766952B2, “Methods for reducing migraine frequency in a subject in need thereof” (Beth Israel Deaconess Medical Center, Inc., priority 2017, dated 2020)
